Assays:
[1] = biological target: recombinant λ6-variable domain light chain Jto in fibrillar form; assay: EuLISA on plate-immobilized fibrils
[2] = biological target: recombinant λ6-variable domain light chain Jto in fibrillar form; assay: binding to plate-immobilized fibrils
[3] = biological target: fibrillar Aβ1-40 peptide (Homo sapiens (Human)) (UniProt P05067)
Sequence of fibrillar Aβ1-40 peptide (Homo sapiens (Human)) (P05067 672-711 limits assumed): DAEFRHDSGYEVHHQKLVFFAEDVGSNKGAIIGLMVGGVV

EC50 [1]: 24 nM
Max. Eu3+ [1]: 195 fmol
affinity [2]: 20 nM
Aβ fibril growth (recruitment of soluble biotinylated Aβ monomer to plate-bound Aβ1-40 fibrils, EuLISA) [3]: 1 µM
B1: antibody heavy chain F1 (protein)
heavy: AMDWTWSILFLVAAATGAHSQVQLVQSGAEVKKPGASVKVSCKASGYTFSSNGIIWVRQAPGQGLEWLGWISGYNGKTRYAQKVQGRVTITTDTSTSTAYMELRSLRSDDTAVYYCAREKTMVRGAISGYSDYWGQGTLVTVSSASTKGPSVFPLAPSSKSTSGGTAALGCLVKDYFPEPVTVSWNSGALTSGVHTFPAVLQSSGLYSLSSVVTVPSSSLGTQTYICNVNHKPSNTKVDKKRVEPKSCDKTHTCPPCPAPELLGGPSVFLFPPKPKDTLMISRTPEVTCVVVDVSHEDPEVKFNWYVDGVEVHNAKTKPREEQYNSTYRVVSVLTVLDHQDWLNGKEYKCKVSNKALPAPIEKTISKAKGQPREPQVYTLPPSREELMTKNQVSLTCLVKGFYPSDIAVEWESNGQPENNYKTTPPVLDSDGSFFLYSKLTVDKSRWQQGNVFSCSVMHEALHNHYTQKSLSLSPGK
